Ends that are not written are not given here.
Tests used:
[1] = system: VPAC1R mRNA; experiment: Semiquantitative RT-PCR of VPAC1R mRNA in HDMEC; format: cell-based, human; conditions: 6 h
Description: To verify our immunohistochemical observation on the mRNA level that the PACAP-induced effects in human dermal endothelial cells are mediated via VPAC1R, we performed RT PCR analysis for VPAC1R, VPAC2R and PAC1R in HDMEC (FIG. 11. Semiquantitative RT-PCR and gel electrophoresis of VPAC1R (FIG. 11A), PAC1R (FIG. 11B) and β-actin (FIG. 11C) in HDMEC. M=marker; lane 1: unstimulated HDMEC; lane 2: TNFα stimulated (4 ng/ml) HDMEC; lane 3 (11A): LPS-stimulated (10 ng/ml) HDMEC; lane 3 (11 B and 11C): HNK cells as positive control; lane 4: RT-control (negative control) In non-stimulated HDMEC cells, mRNA message was only found for PACAP and VPAC1R (FIG. 11A), but not PAC1R (FIG. 11B;) and VPAC2R (data not shown). Note that the PAC1R signal is positive in HNK cells that were used as a positive control. To examine whether proinflammatory mediators such as TNFα or LPS are capable of regulating VPAC1R mRNA expression, HDMEC were harvested without or 6 h after stimulation with TNFα (concentration: 4 ng/ml) or LPS (concentration: 10 ng/ml), respectively, and semiquantitative RT PCR was performed (FIG. 11). To consider the relative mRNA amount in the samples amplification of the housekeeping gene β-actin served as an internal control (FIG. 11C), TNFα as well as LPS induced upregulation of VPAC1R mRNA as compared to the unstimulated controls (FIG. 11). […]

[2] = system: human skin; experiment: Skin temperature (ST) in human volunteers before and after intravenous peptide application; format: in vivo
Description: First, the skin temperature (ST) was measured in different human body regions before and after continuous intravenous application of 100 pmol/kg b.w./h PACAP1-27. Under basal conditions a ST of 33.51±0.25° C. was measured at 0 min. Differences of ST [ΔT(° C.)] were measured after 5, 15, 30, 45, 60 min (FIG. 1: Changes in skin temperature [ΔT(° C.)] as compared to basal (0=33.51±0.25° C.) before and after continuous infusion of 100 pmol/kg b.w./h PACAP1-27 Mean±SEM, *=p<0.05 (n=10)). […] This increase persisted even after 30 min although less dramatic (+1.8° C.±0.26). […] This PACAP-induced effect in human skin was dose-dependent (FIG. 2: Changes in skin temperature [ΔT(° C.)] as compared to basal after continuous infusion of 7.5, 15, or 30 pmol/kg b.w./h PACAP1-27. Mean±SEM, *=p<0.05 (n=9). Mean time until first flush symptoms occurred was 46.03±5.30 min.). […] Next, ST was measured in different body regions before and after a bolus injection of […] PACAP1-27. […] Changes in skin temperature [ΔT(° C.)] as compared to basal ([…]=33.51±0.25° C.) under different conditions of continuous infusion and concentrations (◯=1 μg/kg b.w./h PACAP1-27; o=100 pmol/kg b.w./h). Mean±SEM, *=p<0.05 (n=10)). […] Mean±SEM, *=p<0.05 (n=7)).

[3] = system: human skin; experiment: Flush phenomenon (erythema, edema) in volunteers after intravenous PACAP1-27; format: in vivo
Description: B) Flush phenomenon in a probationer after intravenous application of PACAP1-27. Note cutaneous erythema and facial as well as a marked periorbital edema 30 min after application). […] The approximate duration when first signs of a “flush” occurred were 46.03±5.3 min with 100 pmol/kg b.w./h PACAP1-27. The erythema persisted approximately for 6 h.

[4] = target: T1, VPAC1R (Homo sapiens, UniProt P32241); experiment: In vitro measurement of cAMP activation in HDMEC; format: cell-based
T1 construct: To confirm that HDMEC express functional VPAC1R, we kept HDMEC in FCS/nutrient deficient medium for 24 h; endogenous in cells; host or cells: HDMEC (human dermal microvascular endothelial cells)
T1 sequence (P32241 31-457): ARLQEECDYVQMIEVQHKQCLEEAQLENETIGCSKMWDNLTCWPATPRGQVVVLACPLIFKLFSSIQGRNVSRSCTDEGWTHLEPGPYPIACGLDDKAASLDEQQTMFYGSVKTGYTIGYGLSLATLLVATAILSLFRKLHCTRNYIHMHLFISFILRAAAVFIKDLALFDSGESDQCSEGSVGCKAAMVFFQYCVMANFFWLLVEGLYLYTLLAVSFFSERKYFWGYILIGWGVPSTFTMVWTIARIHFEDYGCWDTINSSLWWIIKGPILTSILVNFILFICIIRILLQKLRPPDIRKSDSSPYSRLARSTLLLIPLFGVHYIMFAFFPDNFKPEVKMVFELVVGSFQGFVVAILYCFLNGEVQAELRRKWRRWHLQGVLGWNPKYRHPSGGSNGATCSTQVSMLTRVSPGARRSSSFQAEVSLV
Description: For example, Human Dermal Microvascular Endothelial cells (HDMEC) can be grown in endothelial cell growth medium. Lyophilized PACAP1-38 can be diluted in the appropriate volume of HDMEC assay medium immediately prior to use. IBMX (3-Isobutyl-1-Methylxanthin) can be added to the medium as a phosphodiesterase inhibitor in order to measure all the intracellular built cAMP after receptor stimulation without the intrinsic phosphdiesterase cleaving some of it. After 24 h cells can be harvested and extracted with 65% ethanol in PBS which can be lyophilized and the cAMP concentration can be examined using a cAMP EIA-direct assay (Amersham Pharmacia Biotech).
Pretreatment with antagonist was 3 min before agonist stimulation. […] Experiments were performed at least three times). IBMX (3-Isobutyl-1-Methylxanthin; 4 mM) was added to the medium as a phosphodiesterase inhibitor in order to measure all the intracellular built cAMP after receptor stimulation without the intrinsic phosphodiesterase cleaving some of it.

[5] = system: HDMEC; experiment: ELISA for NO release by HDMEC; format: cell-based, human
Description: In an alternative approach, the determination of the activity of PACAP signalling pathway can be carried out using an Enzyme-Linked Immunosorbent Assay (ELISA) for nitric oxide (NO) production in HDMEC. To study cytokine release by HDMEC after PACAP stimulation, cells can be stimulated as described above and supernatants can be collected and frozen until use for ELISA assays. For the detection of NO release, NO-ELISA kits, for example from BioSource Int. can be used.
PACAP-induced release of NO in HDMEC. After finding that HDMEC express functional VPAC1R and that VPAC1R is the crucial receptor in human skin epithelium on the protein level, we examined whether PACAP is capable of releasing NO from HDMEC at similar concentrations. Therefore, we performed specific ELISAs with supernatants collected at time-points between […] (FIG. 12). Indeed, PACAP (10^−9 M) induced the release of NO (582%+/−25) by HDMEC as compared to control with a maximal effect at 15 min.

[6] = Systemic parameters: pulse and blood pressure RR syst./diast. during PACAP infusion; format: in vivo, human
Description: To test whether these prominent effects in human skin (erythema, edema) and difference in skin temperature [ΔT(° C.)] were due to a local vascular effect and not due to a secondary systemic effect we measured systemic parameters such as pulse (B/min) and blood pressure RR syst./diast. (mm Hg). […] Thus, PACAP-induced changes are most likely due to a local effect in cutaneous vasculature.

[7] = 30 min, change from 7.5 to 15 pmol/kg/h
[8] = 60 min, change from 15 to 30 pmol/kg/h

## LPS
[1]; 10 ng/ml
  VPAC1R mRNA compared to unstimulated controls: upregulation

## PACAP1-27
[2]; bolus 1 μmol/kg b.w./h compared with continuous 100 pmol/kg b.w./h
  increase of skin temperature, bolus versus continuous infusion: significantly higher increase of ST
[2]; bolus injection 1 μmol/kg b.w./h, maximum after 30 min, n=8
  maximum increase of skin temperature ΔT vs basal: 2.7 °C
[2]; bolus injection, after 60 min
  skin temperature course after bolus: slight decrease of ST
[2]; bolus injection, after 120 min
  skin temperature compared to basal: still elevated
[2]; continuous i.v. 100 pmol/kg b.w./h, after 5 min, n=10, mean±SEM
  increase of skin temperature ΔT vs basal: 1.2 °C
[2]; continuous i.v. 100 pmol/kg b.w./h, after 30 min, n=10, mean±SEM
  increase of skin temperature ΔT vs basal: 1.8 °C
[2]; continuous i.v. 100 pmol/kg b.w./h, between 30 and 60 min
  further increase of skin temperature compared to 30 min: no significant increase of ST
[2]; i.v. infusion 7.5 pmol/kg b.w./h over 30 min, n=9
  increase of skin temperature ΔT vs basal: 1.25 °C
[2]; i.v. infusion 15 pmol/kg b.w./h, n=9
  increase of skin temperature ΔT vs basal: 2.1 °C
[2]; i.v. infusion 30 pmol/kg b.w./h, n=9
  increase of skin temperature ΔT vs basal: 2.4 °C
[2]; immediately after infusion of 30 pmol/kg b.w./h was stopped
  skin temperature after stop of infusion: slowly decreased
[3]; 100 pmol/kg b.w./h
  approximate duration when first signs of a flush occurred: 46.03 ± 5.3 min
[3]; FIG. 2: continuous infusion of 7.5, 15, or 30 pmol/kg b.w./h, n=9
  mean time until first flush symptoms occurred: 46.03 ± 5.30 min
[3]; after i.v. application
  persistence of erythema: ~6 h
[3]; all participants, bolus and continuous infusion
  erythema (flushing) and edema compared to control injections: significant development of erythema (flushing) and edema
[3]; i.v. application
  healthy volunteers in whom the effect was dominant in the face and upper trunk: nine out of ten

## PACAP6-27 (FTDSYSRYRKQMAVKKYLAAVL; ends and bridges not checked; UniProt P18509 137-158, looked up, fragment)
[4]; 10^-7 M (100× the agonist), pretreatment 3 min before agonist
  effect on agonist-induced cAMP activation: cut in half
[5]; preincubation before PACAP
  PACAP-induced NO release after antagonist preincubation (value in brackets): 79+/−22
  effect of preincubation on PACAP-induced NO release: slightly enhanced
[5]; with TNFa
  NO release when TNFa was incubated with the antagonist: significantly lower

## Pituitary adenylate cyclase activating polypeptide [PACAP]
[4]; 10^−9 M, IBMX 4 mM
  cAMP activation compared to the negative control: more than 4 fold
[4]; FIG. 10
  activation of VPAC1R in HDMEC (cAMP): dose-dependent activation
[6]; 5 min, infusion 7.5 pmol/kg/h
  R diastol.: 72 ± 4 mmHg
  R systol.: 107 ± 4 mmHg
  pulse: 64 ± 3 B/min
[6]; 15 min, infusion 7.5 pmol/kg/h
  R diastol.: 75 ± 3 mmHg
  R systol.: 109 ± 4 mmHg
  pulse: 66 ± 4 B/min
[6]; [7]
  R diastol.: 75 ± 3 mmHg
  R systol.: 111 ± 5 mmHg
  pulse: 68 ± 3 B/min
[6]; 35 min, infusion 15 pmol/kg/h
  R diastol.: 74 ± 4 mmHg
  R systol.: 111 ± 5 mmHg
  pulse: 69 ± 3 B/min
[6]; 45 min, infusion 15 pmol/kg/h
  R diastol.: 74 ± 4 mmHg
  R systol.: 111 ± 5 mmHg
  pulse: 73 ± 4 B/min
[6]; [8]
  R diastol.: 74 ± 3 mmHg
  R systol.: 111 ± 5 mmHg
  pulse: 69 ± 3 B/min
[6]; 65 min, infusion 30 pmol/kg/h
  R diastol.: 74 ± 3 mmHg
  R systol.: 109 ± 5 mmHg
  pulse: 71 ± 3 B/min
[6]; 75 min, infusion 30 pmol/kg/h
  R diastol.: 74 ± 3 mmHg
  R systol.: 110 ± 5 mmHg
  pulse: 72 ± 2 B/min
[6]; 90 min (end of infusion)
  R diastol.: 72 ± 4 mmHg
  R systol.: 109 ± 5 mmHg
  pulse: 69 ± 3 B/min
[6]; 100 min, after end of infusion
  R diastol.: 73 ± 4 mmHg
  R systol.: 109 ± 5 mmHg
  pulse: 66 ± 4 B/min
[6]; 110 min, after end of infusion
  R diastol.: 72 ± 4 mmHg
  R systol.: 109 ± 4 mmHg
  pulse: 68 ± 4 B/min
[6]; 120 min, after end of infusion
  R diastol.: 74 ± 3 mmHg
  R systol.: 112 ± 4 mmHg
  pulse: 71 ± 4 B/min
[6]; during and after infusion
  differences in RR syst./diast. or pulse: No measurable differences
[5]; 10^−9 M
  release of NO as compared to control: 582%
  time of maximal effect on NO release: 15 min
[5]; with TNFα
  NO release on incubation together with TNFα, versus TNFα alone: additive effect

## TNFα
[1]; 4 ng/ml
  VPAC1R mRNA compared to unstimulated controls: upregulation

## vasoactive intestinal peptide (HSDAVFTDNYTRLRKQMAVKKYLNSILN; ends and bridges not checked; UniProt P01282 125-152, looked up) [VIP1-28]
[2]; i.v. infusion 20 pmol/kg b.w./h, n=7
  increase of skin temperature vs basal: did not result in a significant increase of ST
[2]; i.v. infusion 100 pmol/kg b.w./h, maximum after 60 min, n=7
  increase of skin temperature ΔT vs basal: 1.36 °C

— patent US20110229423A1 (Galderma Research & Development, priority 2008, published 2011)
